2 molecules from paper PMC2582393 (Developmental cell, 2008) can be followed below.

The labels stand for the following.
B2: AIR-2 (C. elegans Aurora B kinase), recombinant, GST tag removed (enzyme, UniProt O01427 1-305, looked up)
chain: MENKPPVINLPEKETVNTPQKGGKFTINDFEIGRPLGKGKFGSVYLARTKTGHFHVAIKVLFKSQLISGGVEHQLEREIEIQSHLNHPNIIKLYTYFWDAKKIYLVLEYAPGGEMYKQLTVSKRFSEPTAAKYMYEIADALSYCHRKNVIHRDIKPENLLIGSQGELKIGDFGWSVHAPSNKRQTMCGTMDYLPPEMVNGADHSDAVDLWAIGVLCYEFLVGKPPFEHEDQSKTYAAIKAARFTYPDSVKKGARDLIGRLLVVDPKARCTLEQVKEHYWIQGMMEAKIRAEKQQKIEKEASLRNH

What all share (assay): pull-down
The target in experiment [1] is B2.
Experiment [2] concerns the target T1, GST-CDC-48.3 full-length (FL), amino acids 1-724 (C. elegans, UniProt Q21222 1-724).
T1 sequence (looked up): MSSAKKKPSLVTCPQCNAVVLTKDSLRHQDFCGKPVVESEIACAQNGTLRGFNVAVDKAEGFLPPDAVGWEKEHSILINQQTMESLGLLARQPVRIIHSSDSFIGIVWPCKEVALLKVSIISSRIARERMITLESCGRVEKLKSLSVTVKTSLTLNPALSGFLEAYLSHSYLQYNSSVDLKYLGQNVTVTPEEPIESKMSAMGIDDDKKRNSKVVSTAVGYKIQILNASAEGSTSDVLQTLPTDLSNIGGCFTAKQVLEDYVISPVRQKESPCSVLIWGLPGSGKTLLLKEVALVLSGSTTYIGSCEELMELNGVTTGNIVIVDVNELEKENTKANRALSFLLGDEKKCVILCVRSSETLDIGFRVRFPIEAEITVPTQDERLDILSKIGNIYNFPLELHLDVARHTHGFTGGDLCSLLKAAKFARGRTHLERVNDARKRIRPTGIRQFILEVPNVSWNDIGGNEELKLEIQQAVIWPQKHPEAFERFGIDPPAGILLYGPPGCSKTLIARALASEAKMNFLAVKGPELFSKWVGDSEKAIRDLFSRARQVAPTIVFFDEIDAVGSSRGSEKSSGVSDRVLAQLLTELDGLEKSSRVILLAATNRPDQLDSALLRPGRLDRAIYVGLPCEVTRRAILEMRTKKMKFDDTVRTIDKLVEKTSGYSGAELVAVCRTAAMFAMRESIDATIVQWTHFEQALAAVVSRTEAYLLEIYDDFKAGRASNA

Experiment [3] concerns the target T2, GST-CDC-48.3 (N+D1), amino acids 1-441 (C. elegans, UniProt Q21222 1-441).
T2 sequence (looked up): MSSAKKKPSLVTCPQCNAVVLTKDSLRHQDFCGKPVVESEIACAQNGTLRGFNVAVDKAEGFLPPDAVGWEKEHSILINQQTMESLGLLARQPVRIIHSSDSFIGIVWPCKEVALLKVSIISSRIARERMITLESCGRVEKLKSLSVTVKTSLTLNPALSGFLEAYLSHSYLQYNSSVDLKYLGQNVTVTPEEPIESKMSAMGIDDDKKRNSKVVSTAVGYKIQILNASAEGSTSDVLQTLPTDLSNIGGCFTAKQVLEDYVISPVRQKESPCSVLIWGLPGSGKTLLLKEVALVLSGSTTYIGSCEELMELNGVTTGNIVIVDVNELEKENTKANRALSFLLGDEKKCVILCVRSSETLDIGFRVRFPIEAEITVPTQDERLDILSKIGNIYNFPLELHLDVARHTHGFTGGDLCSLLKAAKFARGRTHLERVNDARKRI

The target in experiment [4] is T3, GST-CDC-48.3 (N+D1) K285T (C. elegans, UniProt Q21222 1-441, K285T).
T3 sequence (looked up): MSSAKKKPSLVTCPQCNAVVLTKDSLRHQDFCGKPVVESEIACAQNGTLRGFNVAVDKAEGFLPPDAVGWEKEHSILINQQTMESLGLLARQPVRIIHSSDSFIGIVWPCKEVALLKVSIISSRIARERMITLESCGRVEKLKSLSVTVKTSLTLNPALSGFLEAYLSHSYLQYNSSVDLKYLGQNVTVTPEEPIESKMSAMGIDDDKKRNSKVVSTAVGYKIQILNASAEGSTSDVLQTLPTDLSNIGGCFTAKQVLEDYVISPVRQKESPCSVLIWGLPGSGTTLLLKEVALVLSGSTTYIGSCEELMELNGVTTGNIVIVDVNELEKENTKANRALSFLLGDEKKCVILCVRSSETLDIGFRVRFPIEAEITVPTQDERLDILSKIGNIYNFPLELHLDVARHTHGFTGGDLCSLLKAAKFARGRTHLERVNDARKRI

B1: GST-CDC-48.3 N (amino acids 1-225) (domain or fragment, C. elegans, UniProt Q21222 1-225, looked up)
chain: MSSAKKKPSLVTCPQCNAVVLTKDSLRHQDFCGKPVVESEIACAQNGTLRGFNVAVDKAEGFLPPDAVGWEKEHSILINQQTMESLGLLARQPVRIIHSSDSFIGIVWPCKEVALLKVSIISSRIARERMITLESCGRVEKLKSLSVTVKTSLTLNPALSGFLEAYLSHSYLQYNSSVDLKYLGQNVTVTPEEPIESKMSAMGIDDDKKRNSKVVSTAVGYKIQI
As for B1, in experiment [1], the binding result is given as “binds”.

Take B2: the binding result in experiment [2], in experiment [3] and in experiment [4] was “binds” each time.
